According to article PMC2191965 (The Journal of Experimental Medicine, 1995):

Columns and labels:
I-Ab = biological target: T1, I-Ab (Mus musculus, UniProt P14434+P14483); conditions: purified I-Ab; compared with binding to I-As or with wild-type peptide
T1 sequence (P14434 24-256): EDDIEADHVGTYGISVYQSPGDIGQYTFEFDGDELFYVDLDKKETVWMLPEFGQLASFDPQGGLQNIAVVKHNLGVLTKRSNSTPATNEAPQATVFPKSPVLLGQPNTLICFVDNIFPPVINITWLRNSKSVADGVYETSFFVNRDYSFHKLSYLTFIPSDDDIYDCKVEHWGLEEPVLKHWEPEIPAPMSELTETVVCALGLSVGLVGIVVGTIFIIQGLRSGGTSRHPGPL
T1 sequence (P14483 28-265): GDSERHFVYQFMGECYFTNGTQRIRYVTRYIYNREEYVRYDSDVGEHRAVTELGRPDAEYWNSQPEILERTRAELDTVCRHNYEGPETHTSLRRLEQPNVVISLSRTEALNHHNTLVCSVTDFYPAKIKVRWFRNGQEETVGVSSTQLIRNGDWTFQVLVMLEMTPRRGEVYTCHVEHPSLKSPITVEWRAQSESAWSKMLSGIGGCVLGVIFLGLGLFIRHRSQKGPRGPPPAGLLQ

I-As = biological target: T2, I-As (Mus musculus, UniProt P06345+P14437); type: binding; conditions: purified I-As; compared with ROIV or with wild-type peptide
T2 sequence (P14437 1-233): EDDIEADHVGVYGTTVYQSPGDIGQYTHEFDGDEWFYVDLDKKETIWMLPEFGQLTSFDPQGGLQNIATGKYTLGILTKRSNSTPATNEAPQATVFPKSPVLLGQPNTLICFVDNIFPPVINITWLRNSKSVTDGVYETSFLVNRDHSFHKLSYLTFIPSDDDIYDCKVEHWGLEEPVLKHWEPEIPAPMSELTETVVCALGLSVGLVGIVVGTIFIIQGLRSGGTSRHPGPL
T2 sequence (P06345 28-263): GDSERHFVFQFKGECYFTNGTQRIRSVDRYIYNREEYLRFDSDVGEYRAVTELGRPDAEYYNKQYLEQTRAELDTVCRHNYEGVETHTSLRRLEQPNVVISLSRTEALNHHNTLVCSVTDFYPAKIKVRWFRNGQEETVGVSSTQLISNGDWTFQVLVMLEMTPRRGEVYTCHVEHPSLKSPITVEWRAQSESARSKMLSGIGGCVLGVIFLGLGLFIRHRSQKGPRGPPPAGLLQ

Binding to I-Ab, in words (I-Ab): far less affinity
Binding to I-As, in words (I-As): as well as the ROW
Substance: myelin basic protein 81-100: I-As-restricted epitope myelin basic protein 81-100 (HPADPGNRPHLIRLFSRDAP; UniProt P04370 81-100, looked up, fragment)
